Assay results taken from US20250263481A1.

Biological target: human CLDN18.2 expressed on cells (human)
Assay: cell-based or functional assay

Substance: Human IgG1 isotype antibody
- ADCC on KATOIII CLDN18.2 cells, LDH: max (% cytotoxity) (run A): 0.3%
- ADCC on KATOIII CLDN18.2 cells, LDH: max (% cytotoxity) (run B): -5.51%
- ADCC on KATOIII CLDN18.2 cells, LDH: max (% cytotoxity) (run C): -7.64%
- ADCC on NCI-N87 CLDN18.2 cells, LDH: max (% cytotoxity) (run A): -6.73%
- ADCC on NCI-N87 CLDN18.2 cells, LDH: max (% cytotoxity) (run B): -11.7%
- ADCC on NCI-N87 CLDN18.2 cells, LDH: max (% cytotoxity) (run C): -9.22%
- ADCC, FACS: Max (%): 8.3%
- ADCC, LDH: Max (%): 1.5%
- CDC on CT26 CLDN18.2 cells, LDH: max (% cytotoxity) (run A): 10.8%
- CDC on CT26 CLDN18.2 cells, LDH: max (% cytotoxity) (run B): -0.23%
- CDC on CT26 CLDN18.2 cells, LDH: max (% cytotoxity) (run C): -0.38%
- CDC on KATOIII CLDN18.2 cells, LDH: max (% cytotoxity) (run A): -0.85%
- CDC on KATOIII CLDN18.2 cells, LDH: max (% cytotoxity) (run B): -2.46%
- CDC on KATOIII CLDN18.2 cells, LDH: max (% cytotoxity) (run C): -1.53%
